According to patent US10941182 (Amgen, dated 2021):
Starred links: 1 amine or outer side, 2 acyl side, 3 side chain; linkers in the order of their positions; H or OH if unused. Non-standard residues stand in square brackets, D forms with d. Primed or numbered codes have the meaning given here. *: point of attachment. NPeg9 = PEG amine from Pra click product: 32-amino-3,6,9,12,15,18,21,24,27,30-decaoxadotriacontyl, NCCOCCOCCOCCOCCOCCOCCOCCOCCOCCOCC*; Pra′ = its azide, alkyne or alkene has reacted where a group follows in round brackets; DrSer = D-serine with ψ(CH2NH) reduced amide bond, C(O[*:3])[C@H](C[*:2])N[*:1]; rSer = serine with ψ(CH2NH) reduced amide bond, C(O[*:3])[C@@H](C[*:2])N[*:1]; dBip = N[C@H](Cc1ccc(-c2ccccc2)cc1)C(=O)O; Oic = O=C(O)[C@@H]1C[C@@H]2CCCC[C@@H]2N1; Phe(4-Cl) = N[C@@H](Cc1ccc(Cl)cc1)C(=O)O; dPhe(4-Cl) = N[C@H](Cc1ccc(Cl)cc1)C(=O)O; Phe(4-I) = N[C@@H](Cc1ccc(I)cc1)C(=O)O; 2Nal = N[C@@H](Cc1ccc2ccccc2c1)C(=O)O; d1Nal = N[C@H](Cc1cccc2ccccc12)C(=O)O; NMeR = CN[C@@H](CCCNC(=N)N)C(=O)O; hArg = N=C(N)NCCCC[C@H](N)C(=O)O; Cha = N[C@@H](CC1CCCCC1)C(=O)O; NMeL = CN[C@@H](CC(C)C)C(=O)O; pGlu = O=C1CC[C@@H](C(=O)O)N1; Nle = CCCC[C@H](N)C(=O)O; Orn = NCCC[C@H](N)C(=O)O

T1: human APJ receptor (human, UniProt P35414 1-380)
T1 sequence (looked up): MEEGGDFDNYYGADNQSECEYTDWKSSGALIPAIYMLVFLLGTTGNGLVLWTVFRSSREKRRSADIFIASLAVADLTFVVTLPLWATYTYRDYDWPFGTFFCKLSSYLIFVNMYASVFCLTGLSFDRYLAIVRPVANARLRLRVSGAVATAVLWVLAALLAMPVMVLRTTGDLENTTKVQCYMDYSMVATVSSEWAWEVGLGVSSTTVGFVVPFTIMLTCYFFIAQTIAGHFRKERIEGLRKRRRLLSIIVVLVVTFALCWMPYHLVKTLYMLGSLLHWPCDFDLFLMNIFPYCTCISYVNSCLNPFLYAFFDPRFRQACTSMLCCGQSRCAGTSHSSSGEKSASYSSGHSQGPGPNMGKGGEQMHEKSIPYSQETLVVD

T2: rat APJ receptor (rat, UniProt Q9JHG3 1-377)
T2 sequence (looked up): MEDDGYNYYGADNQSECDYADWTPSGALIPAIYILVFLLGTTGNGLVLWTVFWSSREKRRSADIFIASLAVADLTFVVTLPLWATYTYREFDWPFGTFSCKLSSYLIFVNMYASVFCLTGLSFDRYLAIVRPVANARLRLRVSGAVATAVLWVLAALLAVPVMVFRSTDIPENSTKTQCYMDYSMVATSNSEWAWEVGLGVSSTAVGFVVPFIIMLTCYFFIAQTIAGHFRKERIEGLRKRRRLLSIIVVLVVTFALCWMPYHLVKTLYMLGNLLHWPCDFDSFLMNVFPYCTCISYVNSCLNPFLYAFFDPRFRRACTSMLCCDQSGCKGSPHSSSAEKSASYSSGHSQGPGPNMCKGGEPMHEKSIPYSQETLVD

B1: apelin polypeptide SEQ ID NO: 43 (peptide)
peptide: Ac-[Orn]F[hArg][hArg]Q[hArg]P[hArg][Cha][rSer]HKG[Oic][Nle]P[Phe(4-Cl)]-OH
modifications: also: reduced amide bond at Ser10 (rSer)
B2: apelin polypeptide SEQ ID NO: 44 (peptide)
peptide: Ac-[Orn]F[hArg][hArg]Q[hArg]P[hArg][Cha][DrSer]HKG[Oic][Nle]P[Phe(4-Cl)]-OH
modifications: also: reduced amide bond at D-Ser10 (DrSer)
B3: apelin polypeptide SEQ ID NO: 46 (peptide)
peptide: Ac-[Orn]F[hArg][hArg]QRP[hArg][Cha]SHKGP[Phe(4-I)]P[dBip]-OH
SMILES: CC(=O)N[C@@H](CCCN)C(=O)N[C@@H](Cc1ccccc1)C(=O)N[C@@H](CCCCNC(=N)N)C(=O)N[C@@H](CCCCNC(=N)N)C(=O)N[C@@H](CCC(N)=O)C(=O)N[C@@H](CCCNC(=N)N)C(=O)N1CCC[C@H]1C(=O)N[C@@H](CCCCNC(=N)N)C(=O)N[C@@H](CC1CCCCC1)C(=O)N[C@@H](CO)C(=O)N[C@@H](Cc1c[nH]cn1)C(=O)N[C@@H](CCCCN)C(=O)NCC(=O)N1CCC[C@H]1C(=O)N[C@@H](Cc1ccc(I)cc1)C(=O)N1CCC[C@H]1C(=O)N[C@H](Cc1ccc(-c2ccccc2)cc1)C(=O)O
B4: apelin polypeptide SEQ ID NO: 47 (peptide)
peptide: Ac-[Orn]F[hArg][hArg]QRP[hArg][NMeL]SHKG[Oic][Phe(4-I)]P[dBip]-OH
SMILES: CC(=O)N[C@@H](CCCN)C(=O)N[C@@H](Cc1ccccc1)C(=O)N[C@@H](CCCCNC(=N)N)C(=O)N[C@@H](CCCCNC(=N)N)C(=O)N[C@@H](CCC(N)=O)C(=O)N[C@@H](CCCNC(=N)N)C(=O)N1CCC[C@H]1C(=O)N[C@@H](CCCCNC(=N)N)C(=O)N(C)[C@@H](CC(C)C)C(=O)N[C@@H](CO)C(=O)N[C@@H](Cc1c[nH]cn1)C(=O)N[C@@H](CCCCN)C(=O)NCC(=O)N1[C@H](C(=O)N[C@@H](Cc2ccc(I)cc2)C(=O)N2CCC[C@H]2C(=O)N[C@H](Cc2ccc(-c3ccccc3)cc2)C(=O)O)C[C@@H]2CCCC[C@@H]21
B5: apelin polypeptide SEQ ID NO: 48 (peptide)
peptide: Ac-[Orn]F[hArg][hArg]QRP[hArg][Cha]SHKGP[Nle][Phe(4-Cl)]-OH
SMILES: CCCC[C@H](NC(=O)[C@@H]1CCCN1C(=O)CNC(=O)[C@H](CCCCN)NC(=O)[C@H](Cc1c[nH]cn1)NC(=O)[C@H](CO)NC(=O)[C@H](CC1CCCCC1)NC(=O)[C@H](CCCCNC(=N)N)NC(=O)[C@@H]1CCCN1C(=O)[C@H](CCCNC(=N)N)NC(=O)[C@H](CCC(N)=O)NC(=O)[C@H](CCCCNC(=N)N)NC(=O)[C@H](CCCCNC(=N)N)NC(=O)[C@H](Cc1ccccc1)NC(=O)[C@H](CCCN)NC(C)=O)C(=O)N[C@@H](Cc1ccc(Cl)cc1)C(=O)O
B6: apelin polypeptide SEQ ID NO: 49 (peptide)
peptide: Ac-[Orn]F[hArg][hArg]QRP[hArg][Cha]SHKGP[Nle][2Nal]-OH
SMILES: CCCC[C@H](NC(=O)[C@@H]1CCCN1C(=O)CNC(=O)[C@H](CCCCN)NC(=O)[C@H](Cc1c[nH]cn1)NC(=O)[C@H](CO)NC(=O)[C@H](CC1CCCCC1)NC(=O)[C@H](CCCCNC(=N)N)NC(=O)[C@@H]1CCCN1C(=O)[C@H](CCCNC(=N)N)NC(=O)[C@H](CCC(N)=O)NC(=O)[C@H](CCCCNC(=N)N)NC(=O)[C@H](CCCCNC(=N)N)NC(=O)[C@H](Cc1ccccc1)NC(=O)[C@H](CCCN)NC(C)=O)C(=O)N[C@@H](Cc1ccc2ccccc2c1)C(=O)O
B7: apelin polypeptide SEQ ID NO: 50 (peptide)
peptide: Ac-[dR]Q[hArg]P[dR][NMeL]SHKG[Oic][Phe(4-I)]P[dBip]-OH
B8: apelin polypeptide SEQ ID NO: 51 (peptide)
peptide: Ac-RQRP[hArg][NMeL]SHKG[Oic][Phe(4-I)]P[dBip]-OH
B9: apelin polypeptide SEQ ID NO: 52 (peptide)
peptide: Ac-[dR]QRP[hArg][NMeL]SHKG[Oic][Phe(4-I)]P[dBip]-OH
SMILES: CC(=O)N[C@H](CCCNC(=N)N)C(=O)N[C@@H](CCC(N)=O)C(=O)N[C@@H](CCCNC(=N)N)C(=O)N1CCC[C@H]1C(=O)N[C@@H](CCCCNC(=N)N)C(=O)N(C)[C@@H](CC(C)C)C(=O)N[C@@H](CO)C(=O)N[C@@H](Cc1c[nH]cn1)C(=O)N[C@@H](CCCCN)C(=O)NCC(=O)N1[C@H](C(=O)N[C@@H](Cc2ccc(I)cc2)C(=O)N2CCC[C@H]2C(=O)N[C@H](Cc2ccc(-c3ccccc3)cc2)C(=O)O)C[C@@H]2CCCC[C@@H]21
B10: apelin polypeptide SEQ ID NO: 53 (peptide)
peptide: QRPRLSHKGXFPX
modifications: {Acetyl-NH}Q[hArg]Pr[NMeLeu]SHKG[Oic][pI-Phe]P[D-Bip]{COOH}
B11: apelin polypeptide SEQ ID NO: 54 (peptide)
peptide: Ac-Q[dR]P[NMeR][Cha]SHKG[Oic][Nle][d1Nal]-OH
SMILES: CCCC[C@H](NC(=O)[C@@H]1C[C@@H]2CCCC[C@@H]2N1C(=O)CNC(=O)[C@H](CCCCN)NC(=O)[C@H](Cc1c[nH]cn1)NC(=O)[C@H](CO)NC(=O)[C@H](CC1CCCCC1)NC(=O)[C@H](CCCNC(=N)N)N(C)C(=O)[C@@H]1CCCN1C(=O)[C@@H](CCCNC(=N)N)NC(=O)[C@H](CCC(N)=O)NC(C)=O)C(=O)N[C@H](Cc1cccc2ccccc12)C(=O)O
B12: apelin polypeptide SEQ ID NO: 55 (peptide)
peptide: Ac-[dQ][hArg]P[NMeR][Cha]SHKG[Oic][Nle]P[dPhe(4-Cl)]-OH
SMILES: CCCC[C@H](NC(=O)[C@@H]1C[C@@H]2CCCC[C@@H]2N1C(=O)CNC(=O)[C@H](CCCCN)NC(=O)[C@H](Cc1c[nH]cn1)NC(=O)[C@H](CO)NC(=O)[C@H](CC1CCCCC1)NC(=O)[C@H](CCCNC(=N)N)N(C)C(=O)[C@@H]1CCCN1C(=O)[C@H](CCCCNC(=N)N)NC(=O)[C@@H](CCC(N)=O)NC(C)=O)C(=O)N1CCC[C@H]1C(=O)N[C@H](Cc1ccc(Cl)cc1)C(=O)O
B13: apelin polypeptide SEQ ID NO: 57 (peptide)
peptide: Ac-[Orn]F[hArg][hArg]Q[hArg]P[NMeR][Cha]SHKG[Oic][Nle][Phe(4-Cl)]-OH
SMILES: CCCC[C@H](NC(=O)[C@@H]1C[C@@H]2CCCC[C@@H]2N1C(=O)CNC(=O)[C@H](CCCCN)NC(=O)[C@H](Cc1c[nH]cn1)NC(=O)[C@H](CO)NC(=O)[C@H](CC1CCCCC1)NC(=O)[C@H](CCCNC(=N)N)N(C)C(=O)[C@@H]1CCCN1C(=O)[C@H](CCCCNC(=N)N)NC(=O)[C@H](CCC(N)=O)NC(=O)[C@H](CCCCNC(=N)N)NC(=O)[C@H](CCCCNC(=N)N)NC(=O)[C@H](Cc1ccccc1)NC(=O)[C@H](CCCN)NC(C)=O)C(=O)N[C@@H](Cc1ccc(Cl)cc1)C(=O)O
B14: apelin polypeptide SEQ ID NO: 58 (peptide)
peptide: Ac-[Orn]F[hArg][hArg]Q[hArg][Oic][dR][Cha]SHKG[Oic][Nle][Phe(4-Cl)]-OH
SMILES: CCCC[C@H](NC(=O)[C@@H]1C[C@@H]2CCCC[C@@H]2N1C(=O)CNC(=O)[C@H](CCCCN)NC(=O)[C@H](Cc1c[nH]cn1)NC(=O)[C@H](CO)NC(=O)[C@H](CC1CCCCC1)NC(=O)[C@@H](CCCNC(=N)N)NC(=O)[C@@H]1C[C@@H]2CCCC[C@@H]2N1C(=O)[C@H](CCCCNC(=N)N)NC(=O)[C@H](CCC(N)=O)NC(=O)[C@H](CCCCNC(=N)N)NC(=O)[C@H](CCCCNC(=N)N)NC(=O)[C@H](Cc1ccccc1)NC(=O)[C@H](CCCN)NC(C)=O)C(=O)N[C@@H](Cc1ccc(Cl)cc1)C(=O)O
B15: apelin polypeptide SEQ ID NO: 59 (peptide)
peptide: Ac-[Orn]F[hArg][hArg]Q[hArg]P[dR][NMeL]SHKG[Oic][Nle][Phe(4-Cl)]-OH
SMILES: CCCC[C@H](NC(=O)[C@@H]1C[C@@H]2CCCC[C@@H]2N1C(=O)CNC(=O)[C@H](CCCCN)NC(=O)[C@H](Cc1c[nH]cn1)NC(=O)[C@H](CO)NC(=O)[C@H](CC(C)C)N(C)C(=O)[C@@H](CCCNC(=N)N)NC(=O)[C@@H]1CCCN1C(=O)[C@H](CCCCNC(=N)N)NC(=O)[C@H](CCC(N)=O)NC(=O)[C@H](CCCCNC(=N)N)NC(=O)[C@H](CCCCNC(=N)N)NC(=O)[C@H](Cc1ccccc1)NC(=O)[C@H](CCCN)NC(C)=O)C(=O)N[C@@H](Cc1ccc(Cl)cc1)C(=O)O
B16: apelin polypeptide SEQ ID NO: 96 (peptide)
peptide: [pGlu]RP[hArg][Cha][Pra′](NPeg9)HKG[Oic][Nle]P[Phe(4-Cl)]-OH

Target: T1, human APJ receptor
Experiment: cell-based or functional assay

Row | Binder | EC50 Human APJ Receptor
1 | B1 | 0.393 nM
2 | B2 | 0.997 nM
3 | B3 | 0.389 nM
4 | B4 | 0.416 nM
5 | B5 | 0.287 nM
6 | B6 | 0.159 nM
7 | B7 | 1.43 nM
8 | B8 | 0.37 nM
9 | B9 | 0.623 nM
10 | B10 | 5.18 nM
11 | B11 | 30.1 nM
12 | B12 | 31.6 nM
13 | B13 | 0.412 nM
14 | B14 | 1.17 nM
15 | B15 | 2.08 nM
16 | B16 | 2.02 nM

Target: T2, rat APJ receptor
Experiment: cell-based or functional assay

Row | Binder | EC50 Rat APJ Receptor
17 | B1 | 1.83 nM
18 | B2 | 3.79 nM
19 | B3 | 1.04 nM
20 | B4 | 0.63 nM
21 | B5 | 0.486 nM
22 | B6 | 0.291 nM
23 | B7 | 1.68 nM
24 | B8 | 1.26 nM
25 | B9 | 1.14 nM
26 | B10 | 5.98 nM
27 | B11 | 312 nM
28 | B12 | 145 nM
29 | B13 | 0.787 nM
30 | B14 | 5.32 nM
31 | B15 | 4.57 nM
32 | B16 | 14.6 nM
